US20070065468A1

Target: mite allergen specific IgE of atopic subjects
Test: cell-based or functional assay

B1: CHO-K1-expressed three-in-one chimeric mite allergen D1proenzD1LB5LD2 (protein)
chain: RPSSIKTFEEYKKAFNKSYATFEDEEAARKNFLESVKYVQSNGGAINHLSDLSLDEFKNRFLMSAEAFEHLKTQFDLNAETNACSINGNAPAEIDLRQMRTVTPIRMQGGCGSCWAFSGVAATESAYLAYRNQSLDLAEQELVDCASQHGCHGDTIPRGIEYIQHNGVVQESYYRYVAREQSCRRPNAQRFGISNYCQIYPPNVNKIREALAQTHSAIAVIIGIKDLDAFRHYDGRTIIQRDNGYQPNYHAVNIVGYSNAQGVDYWIVRNSWDTNWGDNGYGYFAANIDLMMIEEYPYVVILGGGSGGGSGGQEHKPKKDDFRNEFDHLLIEQANHAIEKGEHQLLYLQHQLDELNENKSKELQEKIIRELDVVCAMIEGAQGALERELKRTDLNILERFNYEEAQTLSKILLKDLKETEQKVKDIQTQGGGSGGGSGGDQVDVKDCANHEIKKVLVPGCHGSEPCIIHRGKPFQLEAVFEANQNTKTAKIEIKASIDGLEVDVPGIDPNACHYMKCPLVKGQQYDIKYTWNVPKIAPKSENVVVTVKVMGDDGVLACAIATHAKIRD
B1 gave a fold decrease in IgE-mediated histamine release by human basophils of 100 times, a histamine release in basophils (whole blood of two atopic individuals) of 104 fold and a skin prick test, positive skin reactivity in 15 atopic subjects of 26.6%.
